From US12371675B2, “Process and microorganism for synthesis of adipic acid from carboxylic acids” (THE GOVERNING COUNCIL OF THE UNIVERSITY OF TORONTO, priority 2015, dated 2025)

Tests used:
O=C(O)CCCCCO = assay: purified protein, by the assay type; conditions: pH 7.5
CCCC=O [1] = assay: AR kinetics, aldehyde reduction followed by NAD(P)H oxidation; assay type: biochemical, Pseudomonas aeruginosa; conditions: other: butyraldehyde, pH 7.5
Text: (§1) 28 aldehyde reductases from different bacteria were cloned and overexpressed in E. coli. Enzymes purified using affinity chromatography on Ni-NTA resin were screened for reductase activity with adipaldehyde and butyraldehyde in presence of both NADPH and NADH (Table 5). Butyraldehyde was used as a substrate substitute for 4-oxo-butanal, which is not commercially available. Reactions were followed spectrophotometrically, by cofactor oxidation at 340 nm.
(§2) Enzyme activity of purified ARs was measured spectrophotometrically in 96-well plates Reaction mixtures contained 100 mM HEPES buffer (pH 7.5), 0.4 mM NADH/NADPH, 10 mM adipaldehyde or butylaldehyde, and proteins (10 μg for adipaldehyde screen, 2 μg for butyraldehyde screen) in a final volume of 200 μL Reaction mixture for adipaldehyde screening contained 1.8% DMSO. Enzyme reactions were monitored by following the decrease in absorbance at 340 nm (ε340 nm=6,220/M·cm) due to oxidation of NAD(P)H to NAD(P)+.
(§3) ARs RHA1_ro05279, PA1146, SC00229, PP_3370 were characterised for saturation with adipaldehyde, PP_3370, PSPTO_2097, RHA1_ro05279, SC00229, TM_0111, PA1146 were characterised for butyraldehyde saturation (Table 10). […] For both substrates maximal kcat/Km with minimal Km values was shown by AR PP 3370 from Pseudomonas putida.

O=CCCCCC=O = assay: as above; assay type: biochemical, Pseudomonas aeruginosa; conditions: other: adipaldehyde; cofactor NADH; 1,8% DMSO; pH 7.5
Text: as §1, §2, §3

CCCC=O [2] = assay: as above; assay type: biochemical, Pseudomonas syringae; conditions: other: butyraldehyde; cofactor NADPH; pH 7.5
Text: as §1, §2, §3

O=C(O)CCCO = assay: purified protein, by the assay type; conditions: other: ATP/NADPH dependent reduction; pH 7.5

“Mycobacterium paratuberculosis carboxylate reductase MAP_1040c, SEQ ID NO: 38 (Mycobacterium avium subsp. paratuberculosis MAP4)” was tested, and the Km (O=C(O)CCCCCO) was 70.1 ± 7.04 mM.

In the case of “Pseudomonas aeruginosa aldehyde reductase PA1146, SEQ ID NO: 43 (Pseudomonas aeruginosa PAO1)”, the Km (CCCC=O [1]; cofactor NADH) is reported as 15.6 ± 5.94 mM, the kcat (CCCC=O [1]; cofactor NADH) is reported as 9.01 ± 01.9 s⁻¹ and the kcat/Km (CCCC=O [1]; cofactor NADH) is reported as “(5.76 ± 1.22) × ×10^2 M^−1 · s^−1”. The Km (CCCC=O [1]; cofactor NADPH) was 3.37 ± 0.9 mM, the kcat (CCCC=O [1]; cofactor NADPH) was 0.84 ± 0.08 s⁻¹ and the kcat/Km (CCCC=O [1]; cofactor NADPH) was “(2.49 ± 0.24) × ×10^2 M^−1 · s^−1”. For the same substance, the Km (O=CCCCCC=O) was 9.0 ± 1.99 mM, the kcat (O=CCCCCC=O) was 5.45 ± 0.56 s⁻¹ and the kcat/Km (O=CCCCCC=O) was “(6.02 ± 0.06) × ×10^2 M^−1 · s^−1”.

For “Pseudomonas syringae aldehyde reductase PSPTO_2097, SEQ ID NO: 46 (Pseudomonas syringae pv. tomato str. DC3000)”, the Km (CCCC=O [2]) was 10.3 ± 1.06 mM, the kcat (CCCC=O [2]) was 12.2 ± 0.63 s⁻¹ and the kcat/Km (CCCC=O [2]) was “(1.18 ± 0.06) × ×10^3 M^−1 · s^−1”.

“Mycobacterium smegmatis carboxylate reductase MSMEG_2956, SEQ ID NO: 70 (Mycolicibacterium smegmatis MC2 155)” was tested, and the Km (O=C(O)CCCO) was 69.57 ± 4.16 mM, the kcat (O=C(O)CCCO) was 0.513 ± 0.017 s⁻¹ and the kcat/Km (O=C(O)CCCO) was 7.37 ± 0.24 M⁻¹ s⁻¹.

“Mycobacterium smegmatis carboxylate reductase MSMEI_5586, SEQ ID NO: 35 (Mycolicibacterium smegmatis MC2 155)” was tested, and the Km (O=C(O)CCCO) was 19.63 ± 4.88 mM, the kcat (O=C(O)CCCO) was 0.152 ± 0.013 s⁻¹ and the kcat/Km (O=C(O)CCCO) was 7.74 ± 0.66 M⁻¹ s⁻¹.

Substance “Mycobacterium smegmatis carboxylate reductase MSMEG_5739, SEQ ID NO: 37 (Mycolicibacterium smegmatis MC2 155)” has a Km (O=C(O)CCCO) of 37.84 ± 2.39 mM, a kcat (O=C(O)CCCO) of 0.51 ± 0.017 s⁻¹ and a kcat/Km (O=C(O)CCCO) of 13.5 ± 0.45 M⁻¹ s⁻¹.
